Test results: PMC6017014, “VpStyA1/VpStyA2B of Variovorax paradoxus EPS: An Aryl Alkyl Sulfoxidase Rather than a Styrene Epoxidizing Monooxygenase” (Molecules : A Journal of Synthetic Chemistry and Natural …, 2018)

Experiments:
VpStyA2B = target: T1, VpStyA2B (Variovorax paradoxus, UniProt E6V139); experiment: NADH consumption at […] nm, Michaelis-Menten fit; type: biochemical; settings: linker AREAV (408-412) replaced/extended; NADH in excess, concentrations as for wild type; 20 mM Tris-HCl pH 7.5, 30 °C; read-out: Acceptor FAD ^1 / Km
T1 construct: gene styA2B
T1 sequence (E6V139 1-578): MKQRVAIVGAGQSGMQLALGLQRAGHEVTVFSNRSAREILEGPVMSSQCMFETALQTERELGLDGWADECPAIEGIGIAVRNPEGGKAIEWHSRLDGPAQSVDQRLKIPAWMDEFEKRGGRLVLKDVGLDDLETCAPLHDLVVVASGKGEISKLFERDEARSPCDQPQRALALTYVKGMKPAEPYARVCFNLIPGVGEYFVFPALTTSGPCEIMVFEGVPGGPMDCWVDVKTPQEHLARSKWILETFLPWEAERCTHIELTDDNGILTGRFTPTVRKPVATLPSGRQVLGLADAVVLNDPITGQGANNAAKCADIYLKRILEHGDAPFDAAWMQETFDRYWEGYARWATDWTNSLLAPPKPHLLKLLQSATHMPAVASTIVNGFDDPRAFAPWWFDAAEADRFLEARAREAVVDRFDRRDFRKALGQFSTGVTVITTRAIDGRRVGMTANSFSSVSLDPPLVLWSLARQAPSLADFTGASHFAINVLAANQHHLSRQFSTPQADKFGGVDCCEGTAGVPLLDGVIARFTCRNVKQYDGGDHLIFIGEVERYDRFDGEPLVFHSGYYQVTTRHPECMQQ

[1] = system: Cc1cc2nc3c(=O)[nH]c(=O)nc-3n(C[C@H](O)[C@H](O)[C@H](O)COP(=O)(O)O)c2cc1C; experiment: purified protein; type: biochemical, Variovorax paradoxus; settings: NADH 164 µM, FMN 4.1-90.2 µM, 20 mM Tris-HCl pH 7.5, 30 °C
[2] = system: Cc1cc2nc3c(=O)[nH]c(=O)nc-3n(C[C@H](O)[C@H](O)[C@H](O)COP(=O)(O)OP(=O)(O)OC[C@H]3O[C@@H](n4cnc5c(N)ncnc54)[C@H](O)[C@@H]3O)c2cc1C; experiment: purified protein; type: biochemical, Variovorax paradoxus; settings: 20 mM Tris-HCl pH 7.5, 30 °C
[3] = 408-HHHHH linker mutant, NADH in excess, concentrations as for wild type
[4] = 408-TIVVV linker mutant, NADH in excess, concentrations as for wild type
[5] = 408-WYHHH linker mutant, NADH in excess, concentrations as for wild type
[6] = 408-AAAAA linker mutant, NADH in excess, concentrations as for wild type

## Cc1cc2nc3c(=O)[nH]c(=O)nc-3n(C[C@H](O)[C@H](O)[C@H](O)COP(=O)(O)OP(=O)(O)OC[C@H]3O[C@@H](n4cnc5c(N)ncnc54)[C@H](O)[C@@H]3O)c2cc1C [FAD]
VpStyA2B
  Km: 7.4 µM

## VpStyA2B (Variovorax paradoxus EPS)
[1]
  Km: 45.9 ± 6.8 µM
  Vmax: 26 µmol/min/mg
  kcat: 28.7 ± 1.9 s⁻¹
  kcat/Km: 570000 M⁻¹ s⁻¹
[2]; NADH 164 µM, FAD 6.3-78.8 µM
  Km: 33.6 ± 4.0 µM
  Vmax: 20.2 µmol/min/mg
  kcat: 22.3 ± 1.1 s⁻¹
  kcat/Km: 640000 M⁻¹ s⁻¹

## VpStyA2B (Variovorax paradoxus EPS; A408H/A411H/E410H/R409H/V412H)
[2]; [3]
  Km: 14.5 µM
  Vmax: 3.1 µmol/min/mg
  kcat/Km: 230000 M⁻¹ s⁻¹

## VpStyA2B (Variovorax paradoxus EPS; A408T/A411V/E410V/R409I)
[2]; [4]
  Km: 5.1 µM
  Vmax: 3.1 µmol/min/mg
  kcat/Km: 650000 M⁻¹ s⁻¹

## VpStyA2B (Variovorax paradoxus EPS; A408W/A411H/E410H/R409Y/V412H)
[2]; [5]
  Km: 3.2 µM
  Vmax: 6.9 µmol/min/mg
  kcat/Km: 2.3e+06 M⁻¹ s⁻¹

## VpStyA2B (Variovorax paradoxus EPS; E410A/R409A/V412A)
[2]; [6]
  Km: 1.8 µM
  Vmax: 8.8 µmol/min/mg
  kcat/Km: 5.21e+06 M⁻¹ s⁻¹
